Reference: the supplement of paper PMC10567573

B1: SEC22B (parent)
chain: FPKKLAFAYLEDLHSEFDEQHGKK
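Note: lentivirally expressed fusions sorted by FACS into six bins by GFP to DsRed ratio, PSI derived from sequencing read proportions per bin multiplied by bin number.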

Variants of: B1
Experiment: protein stability index of a GFP-peptide fusion (GPS, HEK-293T) (PSI 1-6); higher = more stable
Conditions: c terminus: a fixed tail appended
For FPKTLAFAYLEDLHSEFDEQHGKK [K4T], the protein stability index was 2.47. In the case of FPKYLAFAYLEDLHSEFDEQHGKK [K4Y], the protein stability index is reported as 1.95. FPKMLAFAYLEDLHSEFDEQHGKK [K4M] gave a protein stability index of 2.02. FPKHLAFAYLEDLHSEFDEQHGKK [K4H] showed a protein stability index of 2.87. With FPKILAFAYLEDLHSEFDEQHGKK [K4I] the protein stability index was 2.02. For FPKSLAFAYLEDLHSEFDEQHGKK [K4S], the protein stability index was 1.55. FPKWLAFAYLEDLHSEFDEQHGKK [K4W] showed a protein stability index of 1.05. FPKVLAFAYLEDLHSEFDEQHGKK [K4V] gave a protein stability index of 2.25. With FPKLLAFAYLEDLHSEFDEQHGKK [K4L] the protein stability index was 2.18. Variant FPKKLAFAYLEPLHSEFDEQHGKK [D12P] has a protein stability index of 2.33. FPKKLAFAYLEVLHSEFDEQHGKK [D12V] showed a protein stability index of 1.85. Work on FPKKLAFAYLEGLHSEFDEQHGKK [D12G] yielded a protein stability index of 2.77. For FPKKLAFAYLEMLHSEFDEQHGKK [D12M], the protein stability index was 2.39. With FPKKLAFAYLEALHSEFDEQHGKK [D12A] the protein stability index was 2.1. Work on FPKKLAFAYLETLHSEFDEQHGKK [D12T] yielded a protein stability index of 2.39. FPKKLAFAYLENLHSEFDEQHGKK [D12N] showed a protein stability index of 2.97. In the case of FPKKLAFAYLELLHSEFDEQHGKK [D12L], the protein stability index is reported as 1.77. FPKKLAFAYLEDLHSEFDEQTGKK [H21T] showed a protein stability index of 2.69. Variant FPKKLAFAYLEDLHSEFDEQKGKK [H21K] has a protein stability index of 2.55. FPKKLAFAYLEDLHSEFDEQIGKK [H21I] gave a protein stability index of 1.98. FPKKLAFAYLEDLHSEFDEQAGKK [H21A] showed a protein stability index of 2.93. FPKKLAGAYLEDLHSEFDEQHGKK [F7G] gave a protein stability index of 3.8. FPKKLANAYLEDLHSEFDEQHGKK [F7N] gave a protein stability index of 3.79. In the case of FPKKLALAYLEDLHSEFDEQHGKK [F7L], the protein stability index is reported as 2.65. With FPKKLAVAYLEDLHSEFDEQHGKK [F7V] the protein stability index was 2.67. With FPKKLAFAYLEDLHSELDEQHGKK [F17L] the protein stability index was 2.54. With FPKKLAFAYLEDLHSEQDEQHGKK [F17Q] the protein stability index was 3.28. FPKKLAFAYLEDLHSESDEQHGKK [F17S] gave a protein stability index of 2.64. FPKKLAFAYLEDLHSEWDEQHGKK [F17W] gave a protein stability index of 2.57. With FPKKLAFAYLEDLHSEPDEQHGKK [F17P] the protein stability index was 2.75. Variant FPKKLAFAYLEDLHSEMDEQHGKK [F17M] has a protein stability index of 2.45. FPKKLAFAYLEDLHSEEDEQHGKK [F17E] gave a protein stability index of 3.04. With FPKKLAFAYLEDLHSENDEQHGKK [F17N] the protein stability index was 2.76. In the case of FPKKLAFAYLEDLHSEDDEQHGKK [F17D], the protein stability index is reported as 3.03. In the case of FPKKLAFAYLEDLHSNFDEQHGKK [E16N], the protein stability index is reported as 2.15. With FPKKLAFAYLEDLHSFFDEQHGKK [E16F] the protein stability index was 1.53. In the case of FPKKLAFAYLEDLHSMFDEQHGKK [E16M], the protein stability index is reported as 1.93. Work on FPKKLAFAYLEDLHSAFDEQHGKK [E16A] yielded a protein stability index of 2.4. Variant FPKKLAFAYLEDLNSEFDEQHGKK [H14N] has a protein stability index of 2.46. With FPKKLAFAYLEDLRSEFDEQHGKK [H14R] the protein stability index was 2.55. FPKKLAFAYLEDLSSEFDEQHGKK [H14S] gave a protein stability index of 2.75. For FPTKLAFAYLEDLHSEFDEQHGKK [K3T], the protein stability index was 2.53. FPWKLAFAYLEDLHSEFDEQHGKK [K3W] gave a protein stability index of 1.96. Work on FPQKLAFAYLEDLHSEFDEQHGKK [K3Q] yielded a protein stability index of 2.4. Variant FPGKLAFAYLEDLHSEFDEQHGKK [K3G] has a protein stability index of 2.29. Variant FPMKLAFAYLEDLHSEFDEQHGKK [K3M] has a protein stability index of 2.2. Variant FPEKLAFAYLEDLHSEFDEQHGKK [K3E] has a protein stability index of 2.95. In the case of FPLKLAFAYLEDLHSEFDEQHGKK [K3L], the protein stability index is reported as 2.79. In the case of FPVKLAFAYLEDLHSEFDEQHGKK [K3V], the protein stability index is reported as 2.53. FPFKLAFAYLEDLHSEFDEQHGKK [K3F] showed a protein stability index of 1.91. In the case of FPKKFAFAYLEDLHSEFDEQHGKK [L5F], the protein stability index is reported as 2.17. FPKKAAFAYLEDLHSEFDEQHGKK [L5A] showed a protein stability index of 2.15. Variant FPKKGAFAYLEDLHSEFDEQHGKK [L5G] has a protein stability index of 2.41. Work on FPKKNAFAYLEDLHSEFDEQHGKK [L5N] yielded a protein stability index of 2.65. In the case of FPKKIAFAYLEDLHSEFDEQHGKK [L5I], the protein stability index is reported as 2.98. FPKKLAFALLEDLHSEFDEQHGKK [Y9L] gave a protein stability index of 2.63. FPKKLAFAFLEDLHSEFDEQHGKK [Y9F] showed a protein stability index of 1.99. With FPKKLAFAQLEDLHSEFDEQHGKK [Y9Q] the protein stability index was 2.91. Work on FPKKLAFAWLEDLHSEFDEQHGKK [Y9W] yielded a protein stability index of 1.67. Variant FPKKLAFAALEDLHSEFDEQHGKK [Y9A] has a protein stability index of 2.85. Work on FPKKLAFAILEDLHSEFDEQHGKK [Y9I] yielded a protein stability index of 1.8. With FPKKLAFACLEDLHSEFDEQHGKK [Y9C] the protein stability index was 2.18. FPKKLAFAYLEDLHSEFDEQHQKK [G22Q] gave a protein stability index of 2.36. Work on FPKKLAFAYLEDLHSEFDEQHRKK [G22R] yielded a protein stability index of 2.51. With FPKKLAFAYLEDLHSEFDEQHYKK [G22Y] the protein stability index was 1.98. Variant FPKKLAFAYLEDLHSEFDEQHSKK [G22S] has a protein stability index of 2.6. With FKKKLAFAYLEDLHSEFDEQHGKK [P2K] the protein stability index was 2.55. For FRKKLAFAYLEDLHSEFDEQHGKK [P2R], the protein stability index was 2.94. With FDKKLAFAYLEDLHSEFDEQHGKK [P2D] the protein stability index was 4.59. Variant FQKKLAFAYLEDLHSEFDEQHGKK [P2Q] has a protein stability index of 2.88. In the case of FFKKLAFAYLEDLHSEFDEQHGKK [P2F], the protein stability index is reported as 2.62. Variant FYKKLAFAYLEDLHSEFDEQHGKK [P2Y] has a protein stability index of 2.16. In the case of FSKKLAFAYLEDLHSEFDEQHGKK [P2S], the protein stability index is reported as 3.06. In the case of FNKKLAFAYLEDLHSEFDEQHGKK [P2N], the protein stability index is reported as 3.44. With FPKKLAFAYLEDGHSEFDEQHGKK [L13G] the protein stability index was 3.51. FPKKLAFAYLEDKHSEFDEQHGKK [L13K] showed a protein stability index of 3.2. FPKKLAFAYLEDTHSEFDEQHGKK [L13T] gave a protein stability index of 2.79. With FPKKLAFAYLEDEHSEFDEQHGKK [L13E] the protein stability index was 3.23. Variant FPKKLAFLYLEDLHSEFDEQHGKK [A8L] has a protein stability index of 1.88. In the case of FPKKLAFCYLEDLHSEFDEQHGKK [A8C], the protein stability index is reported as 2.09. For FPKKLAFQYLEDLHSEFDEQHGKK [A8Q], the protein stability index was 3.08. Work on FPKKLAFEYLEDLHSEFDEQHGKK [A8E] yielded a protein stability index of 3.27. Work on FPKKLAFHYLEDLHSEFDEQHGKK [A8H] yielded a protein stability index of 2.72. In the case of FPKKLAFNYLEDLHSEFDEQHGKK [A8N], the protein stability index is reported as 2.83. Work on FPKKLAFMYLEDLHSEFDEQHGKK [A8M] yielded a protein stability index of 2.68. FPKKLAFTYLEDLHSEFDEQHGKK [A8T] gave a protein stability index of 2.64. Work on FPKKLAFAYLEDLHSEFQEQHGKK [D18Q] yielded a protein stability index of 2.25. In the case of FPKKLAFAYLEDLHSEFAEQHGKK [D18A], the protein stability index is reported as 2.38. In the case of FPKKLAFAYLEDLHSEFTEQHGKK [D18T], the protein stability index is reported as 2.56. Variant FPKKLAFAYLEDLHSEFLEQHGKK [D18L] has a protein stability index of 2.22. Variant FPKKLAFAYLEDLHSEFMEQHGKK [D18M] has a protein stability index of 2.22. FPKKLAFAYLEDLHSEFKEQHGKK [D18K] gave a protein stability index of 1.76. Work on FPKKLAFAYLEDLHSEFYEQHGKK [D18Y] yielded a protein stability index of 1.5. In the case of FPKKLAFAYLEDLHSEFIEQHGKK [D18I], the protein stability index is reported as 1.92.
